# Results as given in US20120135912A1 (PERSEID THERAPEUTICS, published 2012).
# Assays:
# [1] = molecular target: T1, human VLA4-Fc (alpha4-Fc/beta1-Fc heterodimer) (human); experiment: SPR (BIACORE), VLA4-Fc captured by anti-human IgG, 1 mM MnCl2, 1:1 Langmuir; standard BIACORE assay, first preparation (Table 5A); KD ratio relative to human 2D-VCAM-1
# T1 construct: Soluble heterodimer from CHO cells, Protein A purified; also called VLA-Fc
# Procedure: The kinetic 2D-VCAM-1 assay measures binding kinetics of a dimeric ligand (e.g., VLA-Fc fusion protein or LPAM-1-Fc fusion protein) coated to sensor chips and monomeric analyte (e.g., 2D-VCAM-1 variant polypeptides) in the mobile phase. Goat anti-human IgG antibody (Jackson ImmunoResearch, Catalog No. 105-005-098) was immobilized on CM-5 sensor chips (GE Healthcare, Catalog No. BR-1000-14) according to the manufacturer's protocol. Antibody was diluted to 30 μg/ml in immobilization buffer (10 mM sodium acetate, pH 5.0 (GE Healthcare, Catalog No. BR-1003-51)). […] Un-reacted sites were quenched with 35 μl of 1 M ethanolamine-HCl pH 8.5 (GE Healthcare, Catalog No. BR-1000-50). This procedure typically yielded 15,000 response units (RU) of coupled antibody. VLA4-Fc or LPAM-1-Fc, prepared as described in Examples 3 and 4, respectively, were bound to antibody-coated sensor chips by injection of 20 μl of ligand solution (20 μg/ml protein in HBS-P-Mn buffer at a flow rate of 10 μl/min). Ligand capture levels were typically 200-300 RU. […] Typically, 8 dilutions of 2D-VCAM-1 variant polypeptides ranging from 150 nM to 0.069 nM were analyzed against a blank reference (HBS-P-Mn buffer alone).
# [2] = molecular target: T1, human VLA4-Fc (alpha4-Fc/beta1-Fc …); experiment: ELISA, VLA4-Fc coated, 1 mM MnCl2; from EC50 values; ELISA, VLA4-Fc coated on plate, 1 mM MnCl2 (activated VLA4); fold relative to Q38L-2D-VCAM-1
# Procedure: (§1) The relative binding affinities of various 2D-VCAM-1 variants to immobilized VLA4-Fc (α4-β1-Fc) heterodimer, relative to a control protein (e.g., Q38L-2D-VCAM-1 or to human 2D-VCAM-1), were deter using a solid-phase ELISA assay. […] The dilution series was transferred into the ELISA plate which was incubated at room temperature for 2 h and subsequently washed with TBS-T. Bound 2D-VCAM protein was detected by incubation with 0.5 ug/ml of biotinylated anti-human VCAM antibody (R&D Systems, Catalog No. BAF809) in TBS-TMC for 1 h at room temperature followed by a TBS-MT (TBS plus 1 mM MnCl2 and 0.02% TWEEN-20) wash and subsequent incubation with 1:2000 dilution of streptavidin-HRP (BD Biosciences, Catalog No. 554066) in TBS-TMC for 30 min at room temperature. […] Fold-improvement in binding was calculated relative to a control protein (e.g., Q38L-2D-VCAM-1 or human 2D-VCAM-1) assayed on the same plate.
# [3] = molecular target: T1, human VLA4-Fc (alpha4-Fc/beta1-Fc …); experiment: ELISA, VLA4-Fc coated, 1 mM MnCl2; from EC50 values; ELISA, VLA4-Fc coated on plate, 1 mM MnCl2 (activated VLA4); fold relative to human 2D-VCAM-1
# Procedure: as §1
# T1 sequence (chain, as listed by the source limits assumed, form in doubt, chain 1 of 2): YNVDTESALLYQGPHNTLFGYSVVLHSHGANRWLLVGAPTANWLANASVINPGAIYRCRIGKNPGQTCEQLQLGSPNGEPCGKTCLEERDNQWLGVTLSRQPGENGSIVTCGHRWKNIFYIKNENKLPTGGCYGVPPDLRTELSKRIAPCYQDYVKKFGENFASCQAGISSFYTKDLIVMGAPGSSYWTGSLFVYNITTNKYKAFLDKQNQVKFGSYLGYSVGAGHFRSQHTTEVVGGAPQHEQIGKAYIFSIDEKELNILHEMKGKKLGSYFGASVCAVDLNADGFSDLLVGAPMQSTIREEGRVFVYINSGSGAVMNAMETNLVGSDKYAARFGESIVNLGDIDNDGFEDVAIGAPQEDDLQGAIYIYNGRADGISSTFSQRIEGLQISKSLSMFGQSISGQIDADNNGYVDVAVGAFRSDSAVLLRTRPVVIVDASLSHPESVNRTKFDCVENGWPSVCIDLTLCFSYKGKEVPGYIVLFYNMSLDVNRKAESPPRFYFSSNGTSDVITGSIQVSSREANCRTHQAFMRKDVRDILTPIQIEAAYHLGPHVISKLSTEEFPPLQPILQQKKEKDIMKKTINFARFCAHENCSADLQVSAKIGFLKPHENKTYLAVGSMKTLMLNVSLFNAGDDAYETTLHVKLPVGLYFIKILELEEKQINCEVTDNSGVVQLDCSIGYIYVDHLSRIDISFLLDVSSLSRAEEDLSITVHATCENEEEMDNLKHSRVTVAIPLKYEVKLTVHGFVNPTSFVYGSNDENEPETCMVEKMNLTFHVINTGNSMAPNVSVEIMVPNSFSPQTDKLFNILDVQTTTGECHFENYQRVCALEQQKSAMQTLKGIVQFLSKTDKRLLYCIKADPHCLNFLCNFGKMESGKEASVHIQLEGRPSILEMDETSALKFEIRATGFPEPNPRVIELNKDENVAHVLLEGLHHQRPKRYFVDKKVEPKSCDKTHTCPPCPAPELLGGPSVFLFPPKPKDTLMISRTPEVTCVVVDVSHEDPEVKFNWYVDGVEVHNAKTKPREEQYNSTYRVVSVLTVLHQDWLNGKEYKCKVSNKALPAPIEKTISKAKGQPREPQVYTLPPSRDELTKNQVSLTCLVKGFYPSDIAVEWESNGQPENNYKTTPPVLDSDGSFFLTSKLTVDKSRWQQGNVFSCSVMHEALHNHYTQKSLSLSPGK
# T1 sequence (chain, as listed by the source limits assumed, form in doubt, chain 2 of 2): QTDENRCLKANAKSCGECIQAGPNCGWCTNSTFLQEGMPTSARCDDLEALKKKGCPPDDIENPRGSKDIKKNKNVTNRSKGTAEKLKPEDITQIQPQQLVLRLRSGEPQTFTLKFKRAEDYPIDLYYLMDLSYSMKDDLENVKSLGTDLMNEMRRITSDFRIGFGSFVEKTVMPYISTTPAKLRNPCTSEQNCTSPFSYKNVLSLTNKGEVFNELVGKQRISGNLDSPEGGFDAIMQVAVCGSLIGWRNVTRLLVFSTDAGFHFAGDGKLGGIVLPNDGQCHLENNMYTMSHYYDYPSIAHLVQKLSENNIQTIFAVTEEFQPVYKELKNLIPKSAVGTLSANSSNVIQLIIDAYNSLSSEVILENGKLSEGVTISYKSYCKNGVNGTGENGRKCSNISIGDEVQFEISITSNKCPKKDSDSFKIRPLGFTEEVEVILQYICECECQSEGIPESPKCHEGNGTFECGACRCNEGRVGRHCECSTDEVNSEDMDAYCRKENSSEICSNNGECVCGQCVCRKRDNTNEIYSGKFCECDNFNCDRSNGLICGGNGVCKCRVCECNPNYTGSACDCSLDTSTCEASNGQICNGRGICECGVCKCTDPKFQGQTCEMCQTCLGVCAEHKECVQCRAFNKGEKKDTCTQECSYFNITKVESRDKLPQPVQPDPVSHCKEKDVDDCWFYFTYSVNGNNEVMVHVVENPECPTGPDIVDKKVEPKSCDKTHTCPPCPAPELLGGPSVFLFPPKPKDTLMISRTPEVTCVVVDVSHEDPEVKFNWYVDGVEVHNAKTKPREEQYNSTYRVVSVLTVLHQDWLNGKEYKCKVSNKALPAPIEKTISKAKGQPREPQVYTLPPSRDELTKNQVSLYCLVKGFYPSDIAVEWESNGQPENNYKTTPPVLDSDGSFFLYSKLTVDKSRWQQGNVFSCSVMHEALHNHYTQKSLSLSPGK
binder,measurement,setting,value
"2D-VCAM-1 variant Clone 146 (ligand, not shown: small tags and cut ends) FKIETTPESRYLAQIGDSVSLTCSTTGCESPLFFWRPLLDSPLNGKVTNEGTTSTLTMNPVSFGNEHSYLCTARCESRSLEKGIQVEIYSFPKDPEIHLSGPLEAGKPITVKCSVADVYPFDRLEIDLLKGDHLMKSQEFLEDADRKSLETKSLEVTFTPVIEDIGKVLVCRAKLHIDEMDSVPTVRQAVKELQVYISP",binding affinity for VLA4-Fc relative to human 2D-VCAM-1,[1],306 fold
same,fold-improvement in binding relative to Q38L-2D-VCAM-1,[2],37 fold
same,fold-improvement in binding relative to human 2D-VCAM-1,[3],298 fold
